We go through 1 molecule from paper PMC7953435 (Cell host & microbe, 2021).

In the experiment the target is N-terminal domain of SARS-CoV-2 spike (NTD, residues 1–330) (SARS-CoV-2, UniProt P0DTC2). Description: crystal structure.

B1: antibody 2–51 Fab (Fab, V domains shown)
VH: QVQLVQSGAEVKKPGASVKVSCKVSGYTLIELSMHWVRQAPGKGLEWMGGFDPEDVETIYAQQFQGRVTMTEDTSTDTAYMELSSLRSEDTAVYYCATGWAYKSTWYFGYWGQGTLVTVSS
VL: QSALTQPPSASGSPGQSVTISCTGTSSDVGGYNYVSWYQQHPGKAPKLMIYEVSKRPSGVPDRFSGSKSGNTASLTVSGLQAEDEADYYCSSYAGSRMGFGGGTKLTVL
For B1, the binding result was “binds”.
